Patent publication US20220402990

Key:
[1] = biological target: Activatable cytokine construct IFN-α-2b 1490DNI-hIgG4
[2] = biological target: Activatable cytokine construct IFN-α2b-1204DNIdl-hIgG4
[3] = biological target: IFN-α2b-1204DNIdl-hIgG4 with five amino acid residues added to the linker

B1: recombinant human matriptase (MT-SP1) (protein)
chain: VVGGTDADEGEWPWQVSLHALGQGHICGASLISPNWLVSAAHCYIDDRGFRYSDPTQWTAFLGLHDQSQRSAPGVQERRLKRIISHPFFNDFTFDYDIALLELEKPAEYSSMVRPICLPDASHVFPAGKAIWVTGWGHTQYGGTGALILQKGEIRVINQTTCENLLPQQITPRMMCVGFLSGGVDSCQGDSGGPLSSVEADGRIFQAGVVSWGDGCAQRNKPGVYTRLPLFRDWIKENTGV
protease cleavage, gel electrophoresis [1]: The results suggest that the proteases were effective at cleaving the cleavable moieties in the activatable cytokine constructs
protease cleavage, gel electrophoresis [2]: The results suggest that the proteases were effective at cleaving the cleavable moieties in the activatable cytokine constructs
protease cleavage, gel electrophoresis [3]: The results suggest that the proteases were effective at cleaving the cleavable moieties in the activatable cytokine constructs
